Assay results from US20240252667A1.

What was measured:
[1] = biological target: human insulin receptor extracellular domain (HIR ECD) (human) (UniProt P06213); assay: ELISA, HIR ECD plated (HIR receptor assay)
[2] = biological target: human insulin receptor extracellular domain (HIR ECD) (human) (UniProt P06213); assay: ELISA, HIR ECD plated; against HIR Ab alone
[3] = biological target: human insulin receptor extracellular domain (HIR ECD) (human) (UniProt P06213); assay: ELISA, HIR ECD plated, biotinylated goat anti-human IgG detection

| Substance | EC50 [1] [nM] | reduction in receptor binding affinity [2] [%] | EC50 [3] [nM] |
| --- | --- | --- | --- |
| GUSB-HIR Ab fusion protein (GUSB fused to the amino terminus of the HIR Ab heavy chain) (from UniProt P08236 23-633) (antibody) | 4.8 | 95 | – |
| HIR Ab-GUSB fusion protein (GUSB fused to the carboxyl terminus of the HIR Ab heavy chain) (from UniProt P08236 23-633) (antibody) | – | – | 0.81 |
